Emax (MFI) and Emax (OD450) data for 1 substance are collected here from US20250222125A1, “Anti-FGFR2b Antibodies, Conjugates and Methods of Use” (BeiGene, Ltd., priority 2024, published 2025).

Assay [1] concerns the target human FGFR2c on cells (human) (UniProt P21802). The experiment in a line: flow cytometry, human FGFR2c OE cells.
The target of assay [2] is human FGFR2b protein (recombinant, coated on ELISA plates) (human) (UniProt P21802). In words: ELISA, plate-coated human FGFR2b. Background: An ELISA detects its analyte on a solid surface through an enzyme-linked reagent.

human FGFR2c on cells (human), sequence (P21802 22-821): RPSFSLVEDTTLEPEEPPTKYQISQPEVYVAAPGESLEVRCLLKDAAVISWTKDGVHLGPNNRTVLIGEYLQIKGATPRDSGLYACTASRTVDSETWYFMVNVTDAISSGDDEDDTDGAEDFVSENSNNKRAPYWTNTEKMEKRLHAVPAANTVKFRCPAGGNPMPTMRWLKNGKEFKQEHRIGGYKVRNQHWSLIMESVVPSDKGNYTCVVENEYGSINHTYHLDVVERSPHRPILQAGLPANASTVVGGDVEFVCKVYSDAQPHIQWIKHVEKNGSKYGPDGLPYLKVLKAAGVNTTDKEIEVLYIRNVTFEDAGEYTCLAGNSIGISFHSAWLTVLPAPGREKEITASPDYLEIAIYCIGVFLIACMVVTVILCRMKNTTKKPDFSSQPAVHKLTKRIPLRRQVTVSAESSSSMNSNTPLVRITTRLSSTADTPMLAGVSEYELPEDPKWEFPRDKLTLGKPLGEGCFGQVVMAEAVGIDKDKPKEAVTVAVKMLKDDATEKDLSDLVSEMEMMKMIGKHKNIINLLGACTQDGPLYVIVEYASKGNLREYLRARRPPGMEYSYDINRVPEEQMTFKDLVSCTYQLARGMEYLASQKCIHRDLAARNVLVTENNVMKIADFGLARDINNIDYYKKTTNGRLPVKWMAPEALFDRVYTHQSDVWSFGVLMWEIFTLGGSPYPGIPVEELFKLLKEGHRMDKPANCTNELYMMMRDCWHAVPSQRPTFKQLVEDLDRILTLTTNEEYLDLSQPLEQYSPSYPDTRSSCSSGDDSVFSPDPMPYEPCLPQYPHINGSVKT

For the substance Isotype IgG control CB-6 (antibody), in assay [1], the Emax (MFI) turned out to be 27 MFI. Besides, in assay [2], the Emax (OD450) amounted to 0.08 OD450.
